The target of experiment [1] is T1, human CD52 (wildtype) (human, not fully specified (residue 3); also: N-linked glycan, GPI anchor).
T1 construct: also called huCD52; hCD52
T1 chain: GQNDTSQTSSPS
As to the kind of experiment: flow cytometry, human CD4+ T cells from PBMC, FITC goat F(ab)2 anti-human Fc gamma secondary, GraphPad Prism fit (Example 29). For orientation: A flow cytometer gives signals particle by particle.
Method: (§1) The EC₅₀ values of chimeric and humanized anti-CD52 antibodies were estimated using CD4+ T cells isolated from healthy donor PBMCs obtained from commercial sources (Bioreclamation, NY, USA). CD4+ T cells were isolated by negative selection using an EasySep kit (Stem Cell Technologies). […] Briefly, human CD4+ T cells were isolated from 50 ml of peripheral blood from healthy volunteers (Bioreclamation), and huCD52 transgenic mouse CD4+ T cells were isolated from spleen tissue. Cells were rinsed with PBS/5% FBS and deposited into round-bottom 96 well plates at 1×10⁵ cells per well. Primary antibody staining was done with an 8 point serial dilution (1:3) of each anti-CD52 chimeric and humanized antibody starting at 100 μg/mL. […] Cells were washed 3 times in ice-cold PBS/5% FBS before and after each incubation. Cells were fixed with PBS containing 2% methanol-free paraformaldehyde and evaluated by flow cytometry. The flow cytometry data was analyzed using GraphPad Prism software to determine an EC₅₀ value with 95% confidence interval.

Experiment [2] has as its target T1, human CD52 (wildtype). As to the kind of experiment: flow cytometry, huCD52 transgenic mouse CD4+ T cells, FITC goat F(ab)2 anti-human Fc gamma secondary, GraphPad Prism fit (Example 29).
Method: as §1
Experiment [3] has as its target T2, MUT 12 alanine-scanning mutant hCD52 peptide (human).
T2 construct: Synthetic
T2 peptide: GQNDTSQTSSPAADC
As to the kind of experiment: Biacore T100 SPR, antibody immobilized, peptide injected at up to 500 nM. (In general: SPR reads the build-up and loss of mass on a sensor chip optically.)
From the text: (§2) The carboxymethyl dextran surface was activated using a 1:1 mixture of 0.1M N-hydroxysuccinimide (NHS) and 0.4M N-ethyl-N′-(3-dimethylaminopropyl)carbodiimide hydrochloride (EDC), allowing the surface to bind reactive amine groups on the antibodies. […] Following antibody immobilization, the reactive sensor chip surface was quenched using 1M ethanolamine hydrochloride/NaOH pH 8.5. One flow cell on each chip was a blank reference surface, and subsequent flow cells were immobilized with 10,000 RU of antibody.
(§3) Peptides were diluted into the assay running buffer, HBS-EP+ (10 mM HEPES, 150 mM NaCl, 0.05% P20 surfactant, 3 mM EDTA, pH 7.4). Duplicates of 100 nM samples were included. […] The T100 instrument sample chamber and assay temperatures were set to 4° C. and 25° C., respectively. The human CD52 peptide samples were injected for five minutes at a 50 μl/min flow rate to measure association, and washed in HBS-EP+ for five minutes at a 50 μl/min flow rate to measure dissociation. The antibody surface was stripped of any remaining bound peptide using a sixty second injection of 10 mM glycine-HCl pH 2.0 at a 50 μl/min flow rate. Analysis was performed using Biacore T100 Kinetics Evaluation software v2.0 (GE Healthcare). Data was fit to a 1:1 model with reference flow cell and 0 nM concentration subtraction (double-reference subtraction).

Experiment [4] has as its target T3, WT 1 wildtype human CD52 peptide (human, not fully specified (residue 15); printed as GQNDTSQTSSPSADK-Biotin).
T3 construct: Synthetic
T3 peptide: GQNDTSQTSSPSADK-{Biotin′}
The experiment is described as above.
From the text: as §2, §3

For experiment [5], the target named is T4, MUT 4 alanine-scanning mutant hCD52 peptide (human).
T4 construct: Synthetic
T4 peptide: GQNATSQTSSPSADC
Described as above.
From the text: as §2, §3

Experiment [6] addresses T5, MUT 9 alanine-scanning mutant hCD52 peptide (human).
T5 construct: Synthetic
T5 peptide: GQNDTSQTASPSADC
Described as above.
From the text: as §2, §3

Experiment [7] deals with T6, MUT 5 alanine-scanning mutant hCD52 peptide (human).
T6 construct: Synthetic
T6 peptide: GQNDASQTSSPSADC
Described as above.
From the text: as §2, §3

Experiment [8] concerns the target T7, MUT 1 alanine-scanning mutant hCD52 peptide (human).
T7 construct: Synthetic
T7 peptide: AQNDTSQTSSPSADC
The experiment is described as above.
From the text: as §2, §3

In experiment [9] the target is T8, MUT 6 alanine-scanning mutant hCD52 peptide (human).
T8 construct: Synthetic
T8 peptide: GQNDTAQTSSPSADC
The description is as above.
From the text: as §2, §3

Experiment [10] deals with T9, MUT 3 alanine-scanning mutant hCD52 peptide (human).
T9 construct: Synthetic
T9 peptide: GQADTSQTSSPSADC
The description is as above.
From the text: as §2, §3

Experiment [11] addresses T10, MUT 2 alanine-scanning mutant hCD52 peptide (human).
T10 construct: Synthetic
T10 peptide: GANDTSQTSSPSADC
The description is as above.
From the text: as §2, §3

The target in experiment [12] is T11, MUT 10 alanine-scanning mutant hCD52 peptide (human).
T11 construct: Synthetic
T11 peptide: GQNDTSQTSAPSADC
The experiment is described as above.
From the text: as §2, §3

The target in experiment [13] is T1, human CD52 (wildtype). The experiment in a line: flow cytometry, CD4+ T cells, 8-point titration.
Method: as §1
The target in experiment [14] is T5, MUT 9 alanine-scanning mutant hCD52 …. As to the kind of experiment: Biacore T100, antibody immobilised on a CM5 chip, peptide injected.
From the text: as §2, §3
For experiment [15], the target named is T1, human CD52 (wildtype). The experiment in a line: flow cytometry, CHO-CD52 cells, 12-point titration.
Method: The EC50 values of selected anti-CD52 antibodies were estimated using CHO cells engineered to express CD52. CHO-CD52 cells were trypsinized in 0.25% trypsin, collected, and rinsed with PBS/5% FBS. Cells were then deposited into round-bottom 96 well plates at 1E5 cells per well. Primary antibody staining was done with a 12 point serial dilution (1:2) of each anti-CD52 chimeric antibody starting at 50 μg/mL. […] Cells were washed 3 times in ice-cold PBS/5% FBS before and after each incubation. Cells were fixed with PBS containing 2% methanol-free paraformaldehyde and evaluated by flow cytometry.
For experiment [16], the target named is T12, MUT 7 alanine-scanning mutant hCD52 peptide (human).
T12 construct: Synthetic
T12 peptide: GQNDTSATSSPSADC
As to the kind of experiment: Biacore T100 SPR, antibody immobilized, peptide injected at up to 500 nM.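 Note: Amine-coupled antibody (10,000 RU), 25 °C in HBS-EP+ pH 7.4, 5 min association then 5 min dissociation, 1:1 fit with blank flow cell and 0 nM double-referencing.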
From the text: as §2, §3

Experiment [17] deals with T13, MUT 8 alanine-scanning mutant hCD52 peptide (human).
T13 construct: Synthetic
T13 peptide: GQNDTSQASSPSADC
The description is as above.
From the text: as §2, §3

The target of experiment [18] is T1, human CD52 (wildtype). The experiment in a line: flow cytometry, CHO-CD52 cells.

Primed or numbered codes have the meaning given here. Ends that are not written are not given here. Biotin′ = not defined here

B1: humanized antibody 12G6-SFD1/K11 (antibody, human IgG1, V domains shown)
VH: EVQLVESGGGLVQPGGSLRLSCAASGFPFSNYWMNWVRQAPGKGLEWVGQIRLKSNNYATHYAESVKGRFTISRDDSKNSLYLQMNSLKTEDTAVYYCTPIDYWGQGTTVTVSS
VL: DIVMTQTPLSLSVTPGQPASISCKSSQSLLYSNGKTYLNWVLQKPGQSPKRLIYLVSKLDSGVPDRFSGSGSGTDFTLKISRVEAEDVGVYYCVQGSHFHTFGQGTKLEIK
notes: also called 12G6 K11; 12G6 hu
B1: the EC50 is 7.3 nM with human CD52 (wildtype) [1] and 13.2 nM with human CD52 (wildtype) [2].

B2: humanized antibody 2C3-SFD1/K12 (antibody, V domains shown)
VH: EVQLVESGGGLVQPGGSLRLSCAASGFTFNTYWMNWVRQAPGKGLEWVGQIRLKSNNYATHYAESVKGRFTISRDDSKNSLYLQMNSLKTEDTAVYYCTPVDFWGQGTTVTVSS
VL: DIVMTQTPLSLSVTPGQPASISCKSSQSLLYSNGKTYLNWLLQKPGQSPQRLIYLVSKLDSGVPDRFSGSGSGTDFTLKISRVEAEDVGVYYCVQGTHLHTFGQGTRLEIKR
notes: also called 2C3 K12; 2C3 unmodified
In the case of B2, the EC50 with human CD52 (wildtype) [1] was 11 nM; in the experiment with human CD52 (wildtype) [2], 13.6 nM. Further, the binding result in [3], in experiment [4], in [5], in experiment [6], in [7] and in experiment [8] was “binds” throughout. In addition, the binding result in [9], in experiment [10], in [11] and in experiment [12] was “binds” in each case. Also, the “fold lower EC50 than Campath-1H®” value with human CD52 (wildtype) [13] is 2 fold.

B3: humanized antibody 12G6-SFD1/K12 (antibody, V domains shown)
VH: EVQLVESGGGLVQPGGSLRLSCAASGFPFSNYWMNWVRQAPGKGLEWVGQIRLKSNNYATHYAESVKGRFTISRDDSKNSLYLQMNSLKTEDTAVYYCTPIDYWGQGTTVTVSS
VL: DIVMTQTPLSLSVTPGQPASISCKSSQSLLYSNGKTYLNWVLQKPGQSPQRLIYLVSKLDSGVPDRFSGSGSGTDFTLKISRVEAEDVGVYYCVQGSHFHTFGQGTKLEIKR
notes: also called 12G6 K12; GLD52
In turn, B3 displayed a half-maximal effective concentration (EC50) with human CD52 (wildtype) [1] of 10.6 nM. Further, the binding result in experiment [3], in experiment [4], in experiment [5], in [7], in experiment [8] and in experiment [9] was “binds” throughout. Moreover, the binding result in experiment [10], in experiment [11], in experiment [12] and in experiment [14] was “binds” each time.

B4: chimeric 12G6 antibody (antibody, human IgG1, V domains shown)
VH: EVQLEESGGGLVQPGGSMKLSCVASGFPFSNYWMNWVRQSPEKGLEWVAQIRLKSNNYATHYAESVKGRFTIARDDSKSSVYLQMNNLRAEDTGIYYCTPIDYWGQGTTLTVSS
VL: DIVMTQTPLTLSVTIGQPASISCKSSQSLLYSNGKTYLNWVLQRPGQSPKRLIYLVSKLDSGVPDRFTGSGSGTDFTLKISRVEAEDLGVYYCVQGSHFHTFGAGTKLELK
notes: also called 12G6-Chi; 12G6-chimeric
Regarding B4, the 50% effective concentration (EC50) with human CD52 (wildtype) [1] was 22.4 nM; with human CD52 (wildtype) [2], 34.4 nM; with human CD52 (wildtype) [15] it was 0.95 µg/mL.

B5: chimeric 2C3 antibody (antibody, human IgG1, V domains shown)
VH: EVKLEESGGGLVQPGGSMKLSCVASGFTFNTYWMNWVRQSPEKGLEWVAQIRLKSNNYATHYAESVKGRFTISRDDSKNSVYLQMNNLRAEDTGIYYCTPVDFWGQGTTLTVSS
VL: DIVITQTPLTLSVTIGQPVSISCKSSQSLLYSNGKTYLNWLLQRPGQSPKRLIYLVSKLDSGVPDRFTGSGSGTDFTLKISRVEAEDLGVYYCVQGTHLHTFGAGTKLELK
notes: also called 2C3-Chi; 2C3-chimeric
As for B5, the values for the EC50 with human CD52 (wildtype) [1], with human CD52 (wildtype) [2] and with human CD52 (wildtype) [15] were 25.9 nM, 30.8 nM and 1.32 µg/mL, respectively.

B6: humanized antibody 4B10-H1/K1 (antibody, V domains shown)
VH: EVQLVESGGGLVQPGGSLRLSCAASGFTFSDYYMSWVRQAPGKGLEWVGFIRNKANGYTTEYSASVKGRFTISRDDSKNSLYLQMNSLKTEDTAVYYCARYIWFDYWGQGTTVTVSS
VL: DIVMTQTPLSLSVTPGQPASISCRSSQSLVHTNGNTYLHWYLQKPGQSPQLLIYMVSNRFSGVPDRFSGSGSGTDFTLKISRVEAEDVGVYYCSQSAHVPPLTFGQGTRLEIKR
notes: also called 4B10-Humanized; 4B10 humanized (H1/K1)
In the experiment with human CD52 (wildtype) [15], B6 yielded a concentration for a half-maximal effect (EC50) of 2.23 µg/mL.

B7: humanized antibody 9D9-H16/K13 (antibody, V domains shown)
VH: EVQLLESGGGLVQPGGSLRLSCAASGFTFSDAWMDWVRQAPGKGLELVSEIRNKAKNHATYYAESVKGRFTISRDNSKNTLYLQMNSLRAEDTAVYYCTTLDSWGQGTTVTVSS
VL: DIVMTQTPLSLSVTPGQPASISCKSSQSLLDSDGKTYLNWLLQKPGQSPQRLIYLVSALDSGVPDRFSGSGSGTDFTLKISRVEAEDVGVYYCWQGTHFPWTFGQGTKLEIKR
In the case of B7, the binding result in experiment [3], in [16], in experiment [4], in [6], in experiment [17] and in [7] was “binds” throughout. Further, the binding result in experiment [8], in experiment [9], in experiment [10], in [11] and in experiment [12] was “binds” throughout.

B8: Campath-1H® (alemtuzumab) (antibody, IgG1, V domains shown)
VH: QVQLQESGPGLVRPSQTLSLTCTVSGFTFTDFYMNWVRQPPGRGLEWIGFIRDKAKGYTTEYNPSVKGRVTMLVDTSKNQFSLRLSSVTAADTAVYYCAREGHTAAPFDYWGQGSLVTVSS
VL: DIQMTQSPSSLSASVGDRVTITCKASQNIDKYLNWYQQKPGKAPKLLIYNTNNLQTGVPSRFSGSGSGTDFTFTISSLQPEDIATYYCLQHISRPRTFGQGTKVEIKR
notes: Humanized IgG1/kappa; also called C1H; C-1H; copies: 2 + 2
For B8, the values for the EC50 with human CD52 (wildtype) [1], with human CD52 (wildtype) [2] and in the experiment with human CD52 (wildtype) [15] were 21.9 nM, 25.1 nM and 1.36 µg/mL, respectively.

B9: chimeric 9D9 antibody (antibody, human IgG1, V domains shown)
VH: EVKLEESGGGLVQPGGSMKLSCAASGFTFSDAWMDWVRQSPEKGLELTAEIRNKAKNHATYYAESVKGRFTISRDDSKSRVYLQMNSLRTEDTGIYYCTTLDSWGQGTSVTVSS
VL: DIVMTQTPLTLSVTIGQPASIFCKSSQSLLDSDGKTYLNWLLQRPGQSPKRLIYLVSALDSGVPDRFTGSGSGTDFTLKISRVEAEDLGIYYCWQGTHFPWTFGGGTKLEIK
notes: also called 9D9-Chi; 9D9-chimeric
In the case of B9, the EC50 in the experiment with human CD52 (wildtype) [18] is 5 to 7 µg/mL; with human CD52 (wildtype) [15] it was 6.05 µg/mL.

The EC50 is the midpoint of the concentration-response curve. Low values mean a more potent agent, high ones a less potent agent.

(Values after patent US20120100152A1 (Sanofi, published 2012).)
